How the values were obtained:
[1] = target: T1, CD28 endogenously expressed on Jurkat/IL2 reporter cells (human, UniProt P10747 19-220); experiment: flow cytometry, Jurkat cells (CD28), Fc fusion at 33.3 nM
T1 construct: whole, on cells; Target on Jurkat cells; also called Jurkats (CD28)

[2] = target: T2, CD28 on Jurkat/IL2 reporter cells (human, UniProt P10747 19-220); experiment: flow cytometry, Jurkat cells (CD28)
T2 construct: whole, on cells; Endogenous CD28 of Jurkat cells; also called Jurkats (CD28)

[3] = target: T3, human PD-L1 on CHO cells (human, UniProt Q9NZQ7 19-290); experiment: flow cytometry; PD-L1 MFI over CD28 MFI
T3 construct: whole, on cells; CHO cells stably expressing PD-L1; also called huPD-L1
T3 sequence (Q9NZQ7 19-290): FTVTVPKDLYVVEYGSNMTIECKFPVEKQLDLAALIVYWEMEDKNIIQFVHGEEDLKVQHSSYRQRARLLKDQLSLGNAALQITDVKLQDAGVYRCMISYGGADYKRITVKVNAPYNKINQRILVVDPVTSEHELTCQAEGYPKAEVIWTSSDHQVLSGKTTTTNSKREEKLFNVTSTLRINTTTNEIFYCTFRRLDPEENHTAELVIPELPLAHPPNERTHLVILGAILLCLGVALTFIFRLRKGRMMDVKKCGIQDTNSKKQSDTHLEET

[4] = target: T4, human CTLA4 on CHO cells (human, UniProt P16410 36-223); experiment: flow cytometry, CHO cells stably expressing CTLA4
T4 construct: whole, on cells; CHO cells stably expressing CTLA4; also called huCTLA4
T4 sequence (P16410 36-223): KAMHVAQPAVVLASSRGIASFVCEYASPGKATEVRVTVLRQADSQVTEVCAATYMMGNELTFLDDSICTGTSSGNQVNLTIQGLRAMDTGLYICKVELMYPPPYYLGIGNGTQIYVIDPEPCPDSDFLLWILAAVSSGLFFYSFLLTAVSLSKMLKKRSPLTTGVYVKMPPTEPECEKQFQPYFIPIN

[5] = target: T3, human PD-L1 on CHO cells; experiment: flow cytometry, CHO cells stably expressing PD-L1
[6] = target: T4, human CTLA4 on CHO cells; experiment: flow cytometry, CHO/CTLA4 cells; MFI relative to WT CD80
[7] = target: T3, human PD-L1 on CHO cells; experiment: flow cytometry, CHO/PD-L1 cells; MFI relative to WT CD80
[8] = target: T2, CD28 on Jurkat/IL2 reporter cells; experiment: flow cytometry, Jurkat cells (CD28); MFI relative to WT CD80
[9] = target: T5, human CTLA4 expressed on CHO cells (human, UniProt P16410 36-223); experiment: flow cytometry, CHO cells stably expressing CTLA4, Fc fusion at 33.3 nM
T5 construct: whole, on cells; Target on CHO cells stably expressing CTLA4; also called huCTLA4
T5 sequence (P16410 36-223): as above

[10] = target: T6, human PD-L1 expressed on CHO cells (human, UniProt Q9NZQ7 19-290); experiment: flow cytometry, CHO cells stably expressing PD-L1, Fc fusion at 33.3 nM
T6 construct: whole, on cells; Target on CHO cells stably expressing PD-L1; also called huPD-L1
T6 sequence (Q9NZQ7 19-290): as the sequence (Q9NZQ7 19-290) above

[11] = target: T7, human CTLA4 (huCTLA4), full-length, stably expressed on CHO cells (human, UniProt P16410 36-223); experiment: flow cytometry, CHO cells expressing huCTLA4
T7 construct: whole, on cells
T7 sequence (P16410 36-223): as the sequence (P16410 36-223) above

[12] = target: T8, human PD-L1 (huPD-L1), full-length, stably expressed on CHO cells (human, UniProt Q9NZQ7 19-290); experiment: flow cytometry, CHO cells expressing huPD-L1
T8 construct: whole, on cells
T8 sequence (Q9NZQ7 19-290): as the sequence (Q9NZQ7 19-290) above

Binder | MFI at 33.3 nM [1] | MFI at 33.3 nM [2] | Ratio of PDL1:CD28 [3] | MFI at 33.3 nM [4] | MFI at 33.3 nM [5] | Fold change to WT CD80 [6] | Fold change to WT CD80 [7] | Fold change to WT CD80 [8] | further results
WT CD80 ECD-Fc (Abcam) (Fc fusion, UniProt P33681 35-242, looked up, extracellular domain; not shown: Fc of the bought product, not described) VIHVTKEVKEVATLSCGHNVSVEELAQTRIYWQKEKKMVLTMMSGDMNIWPEYKNRTIFDITNNLSIVILALRPSDEGTYECVVLKYEKDAFKREHLAEVTLSVKADFPTPSISDFEIPTSNIRRIICSTSGGFPEPHLSWLENGEELNAINTTVSQDPETELYAVSSKLDFNMTTNHSFMCLIKYGHLRVNQTFNWNTTKQEHFPDN | 709 MFI |  |  |  |  |  |  |  | 
variant CD80 IgV-Fc E35D/T41S/N48I (Fc fusion, not shown: a dimerising Fc or GST, also called E35D/T41S/N48T) VIHVTKEVKEVATLSCGHNVSVEELAQTRIYWQKDKKMVLSMMSGDMTIWPEYKNRTIFDITNNLSIVILALRPSDEGTYECVVLKYEKDAFKREHLAEVTLSVKAD |  | 72.4 MFI | 30 ratio | 30300 MFI | 2190 MFI | 15.8 fold | 31.2 fold | 1.1 fold | 
CD80 E35D/M47V/N48K/V68M/K89N IgV-Fc (Fc fusion, not shown: small tags and cut ends; a dimerising Fc or GST) VIHVTKEVKEVATLSCGHNVSVEELAQTRIYWQKDKKMVLTMMSGDVKIWPEYKNRTIFDITNNLSIMILALRPSDEGTYECVVLKYENDAFKREHLAEVTLSVKAD | 1350 MFI |  |  |  |  |  |  |  | MFI at 33.3 nM [9]: 20900 MFI; MFI at 33.3 nM [10]: 14800 MFI
variant CD80 IgV-Fc Q27H/E35D/M47I (Fc fusion, not shown: a dimerising Fc or GST) VIHVTKEVKEVATLSCGHNVSVEELAHTRIYWQKDKKMVLTMMSGDINIWPEYKNRTIFDITNNLSIVILALRPSDEGTYECVVLKYEKDAFKREHLAEVTLSVKAD |  | 756 MFI | 5 ratio | 27500 MFI | 3420 MFI | 14.4 fold | 48.7 fold | 11.5 fold | 
variant CD80 IgV-Fc M43I/M47L/A71G (Fc fusion, not shown: a dimerising Fc or GST) VIHVTKEVKEVATLSCGHNVSVEELAQTRIYWQKEKKMVLTMISGDLNIWPEYKNRTIFDITNNLSIVILGLRPSDEGTYECVVLKYEKDAFKREHLAEVTLSVKAD |  | 1000 MFI | 8 ratio | 23300 MFI | 7760 MFI | 12.2 fold | 110 fold | 15.2 fold | 
variant CD80 IgV-Fc Q33L/E35D/M47V/T62S/V68M/L85M (Fc fusion, not shown: small tags and cut ends; a dimerising Fc or GST) VIHVTKEVKEVATLSCGHNVSVEELAQTRIYWLKDKKMVLTMMSGDVNIWPEYKNRTIFDISNNLSIMILALRPSDEGTYECVVMKYEKDAFKREHLAEVTLSVKAD |  |  |  |  |  |  |  |  | MFI at 33.3 nM [11]: 86 MFI
variant CD80 IgV-Fc M47I/A71G (Fc fusion, not shown: a dimerising Fc or GST) VIHVTKEVKEVATLSCGHNVSVEELAQTRIYWQKEKKMVLTMMSGDINIWPEYKNRTIFDITNNLSIVILGLRPSDEGTYECVVLKYEKDAFKREHLAEVTLSVKAD |  | 823 MFI | 6 ratio | 27800 MFI | 5100 MFI | 14.5 fold | 72.5 fold | 12.5 fold | 
CD80 E35D/N48K/V68M IgV-Fc (Fc fusion, not shown: small tags and cut ends; a dimerising Fc or GST) VIHVTKEVKEVATLSCGHNVSVEELAQTRIYWQKDKKMVLTMMSGDMKIWPEYKNRTIFDITNNLSIMILALRPSDEGTYECVVLKYEKDAFKREHLAEVTLSVKAD | 642 MFI |  |  |  |  |  |  |  | MFI at 33.3 nM [9]: 33600 MFI
CD80 N48K/K89N IgV-Fc (Fc fusion, not shown: small tags and cut ends; a dimerising Fc or GST) VIHVTKEVKEVATLSCGHNVSVEELAQTRIYWQKEKKMVLTMMSGDMKIWPEYKNRTIFDITNNLSIVILALRPSDEGTYECVVLKYENDAFKREHLAEVTLSVKAD | 170 MFI |  |  |  |  |  |  |  | MFI at 33.3 nM [9]: 4370 MFI
variant CD80 IgV-Fc R29C/E35D/M47L/V68M/A71G/L85M (Fc fusion, not shown: small tags and cut ends; a dimerising Fc or GST) VIHVTKEVKEVATLSCGHNVSVEELAQTCIYWQKDKKMVLTMMSGDLNIWPEYKNRTIFDITNNLSIMILGLRPSDEGTYECVVMKYEKDAFKREHLAEVTLSVKAD |  |  |  |  |  |  |  |  | MFI at 33.3 nM [11]: 91 MFI
variant CD80 IgV-Fc E35D/D46E/M47V/V68M/L85Q (Fc fusion, not shown: small tags and cut ends; a dimerising Fc or GST) VIHVTKEVKEVATLSCGHNVSVEELAQTRIYWQKDKKMVLTMMSGEVNIWPEYKNRTIFDITNNLSIMILALRPSDEGTYECVVQKYEKDAFKREHLAEVTLSVKAD |  |  |  |  |  |  |  |  | MFI at 33.3 nM [11]: 15500 MFI; MFI at 33.3 nM [12]: 1720 MFI
variant CD80 IgV-Fc H18Y/E35D/M47L/A71G/A91S (Fc fusion, not shown: a dimerising Fc or GST) VIHVTKEVKEVATLSCGYNVSVEELAQTRIYWQKDKKMVLTMMSGDLNIWPEYKNRTIFDITNNLSIVILGLRPSDEGTYECVVLKYEKDSFKREHLAEVTLSVKAD |  | 528 MFI | 14 ratio | 24200 MFI | 7580 MFI | 12.6 fold | 108 fold | 8 fold | 
CD80 E35D/D46V/M47V/V68M/K89N IgV-Fc (Fc fusion, not shown: small tags and cut ends; a dimerising Fc or GST) VIHVTKEVKEVATLSCGHNVSVEELAQTRIYWQKDKKMVLTMMSGVVNIWPEYKNRTIFDITNNLSIMILALRPSDEGTYECVVLKYENDAFKREHLAEVTLSVKAD | 2120 MFI |  |  |  |  |  |  |  | MFI at 33.3 nM [10]: 21600 MFI
variant CD80 IgV-Fc E35D/D46E/M47I/T62A/V68M/L85M/Y87C (Fc fusion, not shown: small tags and cut ends; a dimerising Fc or GST) VIHVTKEVKEVATLSCGHNVSVEELAQTRIYWQKDKKMVLTMMSGEINIWPEYKNRTIFDIANNLSIMILALRPSDEGTYECVVMKCEKDAFKREHLAEVTLSVKAD |  |  |  |  |  |  |  |  | MFI at 33.3 nM [11]: 17000 MFI
variant CD80 IgV-Fc Q27L/E35D/M47V/I61V/L85M (Fc fusion, not shown: a dimerising Fc or GST) VIHVTKEVKEVATLSCGHNVSVEELALTRIYWQKDKKMVLTMMSGDVNIWPEYKNRTIFDVTNNLSIVILALRPSDEGTYECVVMKYEKDAFKREHLAEVTLSVKAD |  | 230 MFI | 12 ratio | 27900 MFI | 2700 MFI | 14.6 fold | 38.5 fold | 3.5 fold | 
variant CD80 IgV-Fc V22A/E35D/M47L/A71G (Fc fusion, not shown: a dimerising Fc or GST) VIHVTKEVKEVATLSCGHNVSAEELAQTRIYWQKDKKMVLTMMSGDLNIWPEYKNRTIFDITNNLSIVILGLRPSDEGTYECVVLKYEKDAFKREHLAEVTLSVKAD |  | 990 MFI | 8 ratio | 21900 MFI | 8170 MFI | 11.4 fold | 116 fold | 15 fold | 
CD80 E35D/N48K/V68M/K89N IgV-Fc (Fc fusion, not shown: small tags and cut ends; a dimerising Fc or GST) VIHVTKEVKEVATLSCGHNVSVEELAQTRIYWQKDKKMVLTMMSGDMKIWPEYKNRTIFDITNNLSIMILALRPSDEGTYECVVLKYENDAFKREHLAEVTLSVKAD | 1530 MFI |  |  |  |  |  |  |  | MFI at 33.3 nM [10]: 17400 MFI
variant CD80 IgV-Fc E35D/M47V/V68M/L85M/Y87D (Fc fusion, not shown: small tags and cut ends; a dimerising Fc or GST) VIHVTKEVKEVATLSCGHNVSVEELAQTRIYWQKDKKMVLTMMSGDVNIWPEYKNRTIFDITNNLSIMILALRPSDEGTYECVVMKDEKDAFKREHLAEVTLSVKAD |  |  |  |  |  |  |  |  | MFI at 33.3 nM [11]: 13900 MFI; MFI at 33.3 nM [12]: 1720 MFI
variant CD80 IgV-Fc H18Y/E35D (Fc fusion, not shown: a dimerising Fc or GST) VIHVTKEVKEVATLSCGYNVSVEELAQTRIYWQKDKKMVLTMMSGDMNIWPEYKNRTIFDITNNLSIVILALRPSDEGTYECVVLKYEKDAFKREHLAEVTLSVKAD |  | 479 MFI | 7 ratio | 26300 MFI | 3530 MFI | 13.7 fold | 50.2 fold | 7.3 fold | 

Reference: patent US20210130436A1 (published 2021)
